Measurements published in the array DNA melting data of Ke et al..

experiment: melting temperature; melt of duplexes; details: sodium 0.0675 M; strand 1 µM

| Substance | Tm [°C] |
| --- | --- |
| CGACGTGCAAAATGTGCTG+CAGCACATACAGCACGTCG ((((((((...((((((((+))))))))...)))))))) | 49.7 |
| CGACGTGCAAAATGTGCTG+CAGCACATACCGCACGTCG ((((((((...((((((((+))))))))...)))))))) | 48.1 |
| CGACGTGCAAAATGTGCTG+CAGCACATAGAGCACGTCG ((((((((...((((((((+))))))))...)))))))) | 48.9 |
| CGACGTGCAAAATGTGCTG+CAGCACATATGGCACGTCG ((((((((.(.((((((((+)))))))).).)))))))) | 50.3 |
| CGACGTGCAAAATGTGCTG+CAGCACATCAGGCACGTCG ((((((((...((((((((+))))))))...)))))))) | 49.4 |
| CGACGTGCAAAATGTGCTG+CAGCACATCTAGCACGTCG ((((((((.(.((((((((+)))))))).).)))))))) | 49.5 |
| CGACGTGCAAAATGTGCTG+CAGCACATCTCGCACGTCG ((((((((.(.((((((((+)))))))).).)))))))) | 48.6 |
| CGACGTGCAAAATGTGCTG+CAGCACATCTTGCACGTCG ((((((((((.((((((((+)))))))).)))))))))) | 54 |
| CGACGTGCAAAATGTGCTG+CAGCACATGACGCACGTCG ((((((((...((((((((+))))))))...)))))))) | 51.4 |
| CGACGTGCAAAATGTGCTG+CAGCACATGAGGCACGTCG ((((((((...((((((((+))))))))...)))))))) | 52.5 |
| CGACGTGCAAAATGTGCTG+CAGCACATGCAGCACGTCG ((((((((...((((((((+))))))))...)))))))) | 53.8 |
| CGACGTGCAAAATGTGCTG+CAGCACATGCGGCACGTCG ((((((((...((((((((+))))))))...)))))))) | 51.2 |
| CGACGTGCAAAATGTGCTG+CAGCACATGGAGCACGTCG ((((((((...((((((((+))))))))...)))))))) | 53.9 |
| CGACGTGCAAAATGTGCTG+CAGCACATGGCGCACGTCG ((((((((...((((((((+))))))))...)))))))) | 54 |
| CGACGTGCAAAATGTGCTG+CAGCACATGTAGCACGTCG ((((((((.(.((((((((+)))))))).).)))))))) | 53.1 |
| CGACGTGCAAAATGTGCTG+CAGCACATGTTGCACGTCG ((((((((((.((((((((+)))))))).)))))))))) | 56.4 |
| CGACGTGCAAAATGTGCTG+CAGCACATTAAGCACGTCG ((((((((..(((((((((+)))))))))..)))))))) | 52.4 |
| CGACGTGCAAAATGTGCTG+CAGCACATTACGCACGTCG ((((((((..(((((((((+)))))))))..)))))))) | 51.5 |

| Substance | Tm [°C] |
| --- | --- |
| CGACGTGCAAAATGTGCTG+CAGCACATTCCGCACGTCG ((((((((..(((((((((+)))))))))..)))))))) | 50.6 |
| CGACGTGCAAAATGTGCTG+CAGCACATTGGGCACGTCG ((((((((..(((((((((+)))))))))..)))))))) | 54 |
| CGACGTGCAAAATGTGCTG+CAGCACATTTCGCACGTCG ((((((((.((((((((((+)))))))))).)))))))) | 55.4 |
| CGACGTGCAAAATGTGCTG+CAGCACATTTGGCACGTCG ((((((((.((((((((((+)))))))))).)))))))) | 57.6 |
| CGACGTGCAACATGTGCTG+CAGCACATAAGGCACGTCG ((((((((...((((((((+))))))))...)))))))) | 47.8 |
| CGACGTGCAACATGTGCTG+CAGCACATACAGCACGTCG ((((((((...((((((((+))))))))...)))))))) | 47.9 |
| CGACGTGCAACATGTGCTG+CAGCACATAGGGCACGTCG ((((((((...((((((((+))))))))...)))))))) | 49.1 |
| CGACGTGCAACATGTGCTG+CAGCACATAGTGCACGTCG (((((((((..((((((((+))))))))..))))))))) | 48.9 |
| CGACGTGCAACATGTGCTG+CAGCACATATGGCACGTCG ((((((((.(.((((((((+)))))))).).)))))))) | 49.2 |
| CGACGTGCAACATGTGCTG+CAGCACATCACGCACGTCG ((((((((...((((((((+))))))))...)))))))) | 46.5 |
| CGACGTGCAACATGTGCTG+CAGCACATCCAGCACGTCG ((((((((...((((((((+))))))))...)))))))) | 47.1 |
| CGACGTGCAACATGTGCTG+CAGCACATCCGGCACGTCG ((((((((...((((((((+))))))))...)))))))) | 47.7 |
| CGACGTGCAACATGTGCTG+CAGCACATCTAGCACGTCG ((((((((.(.((((((((+)))))))).).)))))))) | 48.2 |
| CGACGTGCAACATGTGCTG+CAGCACATGAAGCACGTCG ((((((((..(((((((((+)))))))))..)))))))) | 54.3 |
| CGACGTGCAACATGTGCTG+CAGCACATGCAGCACGTCG ((((((((..(((((((((+)))))))))..)))))))) | 53.9 |
| CGACGTGCAACATGTGCTG+CAGCACATGCTGCACGTCG (((((((((.(((((((((+))))))))).))))))))) | 56.9 |
| CGACGTGCAACATGTGCTG+CAGCACATGGTGCACGTCG (((((((((.(((((((((+))))))))).))))))))) | 60 |
| CGACGTGCAACATGTGCTG+CAGCACATGTGGCACGTCG ((((((((.((((((((((+)))))))))).)))))))) | 59.3 |
